This is an account of results in patent publication US20070258992A1.

The assay has as its target mouse synaptosomes.

With “active botulinum neurotoxin A (from UniProt P0DPI0 2-1296)”, the maximum inhibition stood at 78%.
